Experimental data from patent US12366576B2, “Compositions, assays, and methods for direct modulation of fatty acid metabolism” (Dana-Farber Cancer Institute, Inc., priority 2016, dated 2025).
One block for each substance: values may come before it. Bridge positions count the residues as written; N and C are the ends. Square brackets hold non-standard residues; d marks the D form. Ends that are not written are not given here. * marks the point of attachment. Biotin = O=C1N[C@H]2[C@H](CS[C@H]2CCCCC(=O)*)N1; S5 = C=CCCC[C@](C)(N)C(=O)O

How the values were obtained:
VLCAD [1] = target: T1, VLCAD (Homo sapiens, UniProt P49748); experiment: Biotinylated SAHB pulldown of recombinant protein; assay type: binding; settings: 5 nmol SAHB with 10 pmol rVLCAD
T1 construct: 10x His (N); made in house; host or cells: E. coli BL21(DE3), pET19b
T1 sequence (P49748 40-655): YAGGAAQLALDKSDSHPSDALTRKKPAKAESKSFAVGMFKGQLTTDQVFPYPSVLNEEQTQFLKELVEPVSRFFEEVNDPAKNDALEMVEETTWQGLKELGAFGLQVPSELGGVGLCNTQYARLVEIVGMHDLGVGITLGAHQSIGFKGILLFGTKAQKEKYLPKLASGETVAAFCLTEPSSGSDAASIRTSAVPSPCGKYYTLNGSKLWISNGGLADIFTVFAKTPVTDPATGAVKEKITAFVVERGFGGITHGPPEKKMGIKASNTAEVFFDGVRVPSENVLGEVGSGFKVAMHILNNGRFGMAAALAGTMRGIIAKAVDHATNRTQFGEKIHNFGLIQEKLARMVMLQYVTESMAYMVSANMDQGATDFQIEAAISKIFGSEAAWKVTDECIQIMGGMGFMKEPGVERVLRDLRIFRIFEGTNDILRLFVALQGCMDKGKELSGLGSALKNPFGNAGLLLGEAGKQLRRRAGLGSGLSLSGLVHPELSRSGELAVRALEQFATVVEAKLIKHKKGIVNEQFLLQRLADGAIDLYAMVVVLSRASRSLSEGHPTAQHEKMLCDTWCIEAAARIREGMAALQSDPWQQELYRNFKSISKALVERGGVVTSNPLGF
Source text: To validate the MS result, the pulldowns were repeated and eluates run on a gel for anti-VLCAD Western blot analysis. […] All peptides faithfully recapitulated native BH3-binding propensities for endogenous MCL-1 protein (FIG. 8). The eluates were then probed for the other members of the acyl-CoA dehydrogenase family that manifest shorter fatty acid substrate specificities. MCL-1 SAHBD was able to pull down VLCAD, but not MCAD or SCAD (FIG. 9). Because the traditional MCL-1 staple location differs from that of the BIM, BID, and BAD SAHBs, it was important to confirm that the observed VLCAD binding specificity was due to BH3 sequence selectivity, not staple position. A BIM SAHB with the traditional MCL-1 staple (BIM SAHBF), and a MCL-1 stapled peptide with the traditional BIM staple (MCL-1 SAHBA), were generated. […]
Wild-type MEFs were trypsinized, washed once with cold PBS, and lysed on ice with NP-40 lysis buffer (50 mM Tris, pH 7.4, 150 mM NaCl, 0.5% (v/v) NP-40, complete protease inhibitor pellet (Roche)) using 1 ml of lysis buffer for every 10 million cells lysed. Cellular debris was pelleted at 14,000 g for 10 min at 4° C., and the supernatant was quantified using the BCA Protein Assay Kit (Thermo Fisher Scientific). […]

endogenous MCL-1 = experiment: Biotinylated SAHB pulldown from MEF lysates, anti-MCL-1 Western analysis; assay type: binding, mouse; settings: wild-type MEF lysates, 15 nmol biotinylated SAHB
endogenous MCL-1, sequence (P97287 152-308 limits assumed): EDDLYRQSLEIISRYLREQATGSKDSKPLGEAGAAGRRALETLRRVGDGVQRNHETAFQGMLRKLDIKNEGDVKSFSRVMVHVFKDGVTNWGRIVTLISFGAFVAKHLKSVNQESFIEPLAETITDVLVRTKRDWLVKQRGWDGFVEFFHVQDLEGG
Experimental: An exploratory proteomics analysis was conducted to identify proteins that interact with the MCL-1 BH3 domain helix. An extensive library of MCL-1 stapled BH3 peptides (FIG. 2) was generated to both identify novel protein interactors by mass spectrometry and then deploy the stapled peptide constructs as novel probes to dissect and pharmacologically modulate the identified protein interactors and associated signaling pathways. As an example, an N-terminally biotinylated stapled peptide designed based on the sequence of MCL-1's BH3 domain (Btn-MCL-1 SAHBD), or vehicle, was incubated with wild-type mouse embryonic fibroblast (MEF) lysates, followed by high stringency streptavidin capture. To validate the proteomics workflow and ensure that Btn-MCL-1 SAHBD could, in fact, engage protein interactors in a lysate, eluates were first run on a gel for anti-MCL-1 Western analysis. […] For mass spectrometry (MS) analysis, eluates were run on a reducing/denaturing gel followed by Coomassie staining (FIG. 4) and in-gel digestion was performed before injection on the instrument.
The binding determinants for the MCL-1 BH3/VLCAD interaction were investigated by generating a series of biotinylated MCL-1 SAHBD alanine point mutants (FIG. 18A) and performing streptavidin pull-downs from MEF lysates, followed by VLCAD and MCL-1 western analysis of the resulting eluates. […] Native alanines and residues not mutated are colored white.
Wild-type MEFs were trypsinized, washed once with cold PBS, and lysed on ice with NP-40 lysis buffer (50 mM Tris, pH 7.4, 150 mM NaCl, 0.5% (v/v) NP-40, complete protease inhibitor pellet (Roche)) using 1 ml of lysis buffer for every 10 million cells lysed. Cellular debris was pelleted at 14,000 g for 10 min at 4° C., and the supernatant was quantified using the BCA Protein Assay Kit (Thermo Fisher Scientific). 2 mg of lysate per pulldown were then exposed to 50 μL of pre-equilibrated High Capacity Streptavidin Agarose beads (Thermo Fisher Scientific). […] The beads were then pelleted and washed with NP-40 lysis buffer three times before eluting the protein sample from the beads by heating at 70° C. for 10 min in SDS loading buffer. Samples were then subjected to electrophoresis and either Western analysis or Coomassie stain (SimplyBlue Safe Stain, Thermo Fisher Scientific). […] Coomassie stained gels were then processed for proteomics analysis (see below). Biotinylated SAHB pulldowns of recombinant protein were performed as above incubating 5 nmol of SAHB with 10 pmol of rVLCAD in 500 μL total volume. Densitometry analyses were performed using ImageJ software.

VLCAD [2] = target: T1, VLCAD; experiment: Biolayer interferometry; assay type: binding; settings: Biotin-PEG peptide immobilized on streptavidin sensors
Experimental: (§1) To measure the direct binding interaction, ^19F NMR binding studies were conducted using fluorinated analogs of MCL-1 SAHBD. […] Both SAHBs, however, bind MCL-1ΔNΔC, as illustrated by a chemical shift of the peptide NMR peak in both cases (FIG. 15). […] To perform these experiments, N-terminal Btn-PEG analogs of the peptides were immobilized onto streptavidin probes that were then placed into protein solutions at a variety of concentrations to measure ligand-target association.
VLCAD. Mature human VLCAD lacking its cleavable leader sequence (aa 40-655) (NP_000009.1) was subcloned into the pET19b vector (Novagen) using NdeI and XhoI restriction sites. Correct insertion was confirmed by DNA sequencing. The 10× His-tagged VLCAD construct was expressed in BL21(DE3) E. coli, and once cells reached an OD of 0.8 after growing at 37° C., they were induced with 0.5 mM […] (IPTG) (Gold Biotechnology I2481C) at 37° C. for 4 hours. Bacterial pellets were resuspended in lysis buffer (500 mM NaCl, 50 mM HEPES, 5% glycerol, pH 7.5, complete protease inhibitor tablet) and lysed by microfluidization (M-110L; Microfluidics). […]
BLI binding measurements were performed using an Octet Red384 System (ForteBio). […] Binding parameters were calculated using the accompanying Octet Software version 9 (ForteBio).

VLCAD [3] = target: T1, VLCAD; experiment: 19F NMR binding study with fluorinated SAHB; settings: fluorinated SAHB 25 μM, VLCAD 0-125 μM
Experimental: as §1
VLCAD. Mature human VLCAD lacking its cleavable leader sequence (aa 40-655) (NP_000009.1) was subcloned into the pET19b vector (Novagen) using NdeI and XhoI restriction sites. Correct insertion was confirmed by DNA sequencing. […]
(§2) To determine binding of SAHBs to VLCAD, fluorinated SAHB (25 μM) and VLCAD (0-125 μM) were mixed together in VLCAD FPLC buffer including 10% D2O to a final volume of 500 μL. […] The extent to which VLCAD bound the peptide was determined by measuring the peak width at half height (ν1/2) of the peptide ^19F signal. […] MCL-1ΔNΔC binding to SAHBs causes a change in the ^19F chemical shift of the peptide resulting in two peptide signals (instead of peak broadening), so extent of binding was quantified by measuring the peak height of “unbound” peptide relative to the bound peptide signal.

MCL-1ΔNΔC [4] = target: T2, MCL-1ΔNΔC (Homo sapiens, UniProt Q07820); experiment: Biolayer interferometry; assay type: binding; settings: Biotin-PEG peptide immobilized on streptavidin sensors
T2 construct: The MCL-1ΔNΔC construct was grown and expressed in E. coli as previously described; made in house; host or cells: E. coli BL21(DE3)
T2 sequence (Q07820 172-320 limits assumed, stated change not applied): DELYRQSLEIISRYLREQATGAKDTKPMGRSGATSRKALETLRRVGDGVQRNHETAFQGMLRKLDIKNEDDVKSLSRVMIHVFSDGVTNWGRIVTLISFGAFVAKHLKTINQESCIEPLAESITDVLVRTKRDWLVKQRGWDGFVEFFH

MCL-1ΔNΔC [5] = target: T2, MCL-1ΔNΔC; experiment: 19F NMR binding study with fluorinated SAHB; settings: fluorinated SAHB 25 μM, MCL-1ΔNΔC 0-45 μM
Experimental: as §1
MCL-1ΔNΔC. The MCL-1ΔNΔC construct was grown and expressed in E. coli as previously described (see, e.g., Stewart, Nat Chem Biol., 6(6):595-601 (2010)). Transformed BL21(DE3) E. coli were grown at 37° C. to an OD of 0.8, after which they were induced with 0.5 mM IPTG. […]
as §2

- pull down of recombinant VLCAD (VLCAD [1]): pulled down recombinant VLCAD
Substance: Btn-MCL-1 SAHBD: N-terminally biotinylated stapled peptide designed based on the sequence of MCL-1's BH3 domain (Biotin-RKALETLRRVGDGV[S5]RNH[S5]TAF; staple 15-19)
- pull down of endogenous MCL-1 from cellular lysates (endogenous MCL-1): readily identified in the eluates

Substance: MCL-1 SAHBB: MCL-1 SAHB containing a different staple position (RKAL[S5]TLR[S5]VGDGVQRNHETAF; staple 5-9)
- biolayer interferometry association with VLCAD (VLCAD [2]): no detectable binding interaction
- 19F NMR peptide peak broadening on VLCAD titration (VLCAD [3]): little to no peak broadening
- biolayer interferometry association with MCL-1 (MCL-1ΔNΔC [4]): bind to MCL-1
- 19F NMR binding to MCL-1ΔNΔC (chemical shift of the peptide peak) (MCL-1ΔNΔC [5]): binds directly
